Assay [1] deals with glycocalicin (the soluble extracellular domain of platelet glycoprotein Ibα) (human) (UniProt P07359). Kind of assay: cell adhesion assay, competition.
Assay [2] addresses Mac-1 (αMβ2, CD11b/CD18) on THP-1 monocytic cells (human (endogenous in THP-1)), P11215. Kind of assay: cell adhesion assay, competition. The following applies: remark: other sources report otherwise.

UniProt P07359, sequence (P07359 17-531): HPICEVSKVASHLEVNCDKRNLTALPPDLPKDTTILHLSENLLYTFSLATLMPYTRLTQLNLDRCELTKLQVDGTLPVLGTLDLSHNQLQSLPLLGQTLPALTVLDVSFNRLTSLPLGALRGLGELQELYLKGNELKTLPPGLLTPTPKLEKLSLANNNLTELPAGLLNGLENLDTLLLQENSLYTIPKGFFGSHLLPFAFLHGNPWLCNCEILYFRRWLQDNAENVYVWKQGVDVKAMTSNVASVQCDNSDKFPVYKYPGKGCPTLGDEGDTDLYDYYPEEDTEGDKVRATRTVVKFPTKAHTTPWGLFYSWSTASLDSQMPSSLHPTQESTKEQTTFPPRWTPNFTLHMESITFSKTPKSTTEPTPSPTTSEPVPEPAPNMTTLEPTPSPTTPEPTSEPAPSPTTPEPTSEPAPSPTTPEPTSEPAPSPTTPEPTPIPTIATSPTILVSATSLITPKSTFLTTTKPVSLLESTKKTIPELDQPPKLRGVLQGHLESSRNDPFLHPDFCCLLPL

In assay [1], “39/34-kD dispase fragment of vWf encompassing the A1 domain (Leu480–Gly718) (domain or fragment)” registered a percent inhibition of THP-1 adhesion to GP Ibα of 83%.

B1: human fibrinogen, P02671-2 20-644; P02675 31-491; P02679-2 27-437 (complex)
chain 1: ADSGEGDFLAEGGGVRGPRVVERHQSACKDSDWPFCSDEDWNYKCPSGCRMKGLIDEVNQDFTNRINKLKNSLFEYQKNNKDSHSLTTNIMEILRGDFSSANNRDNTYNRVSEDLRSRIEVLKRKVIEKVQHIQLLQKNVRAQLVDMKRLEVDIDIKIRSCRGSCSRALAREVDLKDYEDQQKQLEQVIAKDLLPSRDRQHLPLIKMKPVPDLVPGNFKSQLQKVPPEWKALTDMPQMRMELERPGGNEITRGGSTSYGTGSETESPRNPSSAGSWNSGSSGPGSTGNRNPGSSGTGGTATWKPGSSGPGSTGSWNSGSSGTGSTGNQNPGSPRPGSTGTWNPGSSERGSAGHWTSESSVSGSTGQWHSESGSFRPDSPGSGNARPNNPDWGTFEEVSGNVSPGTRREYHTEKLVTSKGDKELRTGKEKVTSGSTTTTRRSCSKTVTKTVIGPDGHKEVTKEVVTSEDGSDCPEAMDLGTLSGIGTLDGFRHRHPDEAAFFDTASTGKTFPGFFSPMLGEFVSETESRGSESGIFTNTKESSSHHPGIAEFPSRGKSSSYSKQFTSSTSYNRGDSTFESKSYKMADEAGSEADHEGTHSTKRGHAKSRPVRGIHTSPLGKPSLSP
chain 2: QGVNDNEEGFFSARGHRPLDKKREEAPSLRPAPPPISGGGYRARPAKAAATQKKVERKAPDAGGCLHADPDLGVLCPTGCQLQEALLQQERPIRNSVDELNNNVEAVSQTSSSSFQYMYLLKDLWQKRQKQVKDNENVVNEYSSELEKHQLYIDETVNSNIPTNLRVLRSILENLRSKIQKLESDVSAQMEYCRTPCTVSCNIPVVSGKECEEIIRKGGETSEMYLIQPDSSVKPYRVYCDMNTENGGWTVIQNRQDGSVDFGRKWDPYKQGFGNVATNTDGKNYCGLPGEYWLGNDKISQLTRMGPTELLIEMEDWKGDKVKAHYGGFTVQNEANKYQISVNKYRGTAGNALMDGASQLMGENRTMTIHNGMFFSTYDRDNDGWLTSDPRKQCSKEDGGGWWYNRCHAANPNGRYYWGGQYTWDMAKHGTDDGVVWMNWKGSWYSMRKMSMKIRPFFPQQ
chain 3: YVATRDNCCILDERFGSYCPTTCGIADFLSTYQTKVDKDLQSLEDILHQVENKTSEVKQLIKAIQLTYNPDESSKPNMIDAATLKSRKMLEEIMKYEASILTHDSSIRYLQEIYNSNNQKIVNLKEKVAQLEAQCQEPCKDTVQIHDITGKDCQDIANKGAKQSGLYFIKPLKANQQFLVYCEIDGSGNGWTVFQKRLDGSVDFKKNWIQYKEGFGHLSPTGTTEFWLGNEKIHLISTQSAIPYALRVELEDWNGRTSTADYAMFKVGPEADKYRLTYAYFAGGDAGDAFDGFDFGDDPSDKFFTSHNGMQFSTWDNDNDKFEGNCAEQDGSGWWMNKCHAGHLNGVYYQGGTYSKASTPNGYDNGIIWATWKTRWYSMKKTTMKIIPFNRLTIGEGQQHHLGGAKQAGDV
As to B1, the percent inhibition of THP-1 adhesion to GP Ibα in assay [2] turned out to be 99%.

For the origin of these results see article PMC2193258.
